Test results: article PMC3103433 (2011)

B1: His-6-Munc18c [not stated] / Sx4-GST, wild-type Syntaxin 4 cytosolic domain (residues 1-273) [not stated] (parent complex)
chain 1: MAPPVSERGLKSVVWRKIKTAVFDDCRKEGEWKIMLLDEFTTKLLSSCCKMTDLLEEGITVIENIYKNREPVRQMKALYFISPTPKSVDCFLRDFGSKSEKKYKAAYIYFTDFCPDSLFNKIKASCSKSIRRCKEINISFIPQESQVYTLDVPDAFYYCYSPDPSNASRKEVVMEAMAEQIVTVCATLDENPGVRYKSKPLDNASKLAQLVEKKLEDYYKIDEKGLIKGKTQSQLLIIDRGFDPVSTVLHELTFQAMAYDLLPIENDTYKYKTDGKEKEAVLEEDDDLWVRVRHRHIAVVLEEIPKLMKEISSTKKATEGKTSLSALTQLMKKMPHFRKQISKQVVHLNLAEDCMNKFKLNIEKLCKTEQDLALGTDAEGQRVKDSMLVLLPVLLNKNHDNCDKIRAVLLYIFGINGTTEENLDRLIHNVKIEDDSDMIRNWSHLGVPIVPPSQQAKPLRKDRSAEETFQLSRWTPFIKDIMEDAIDNRLDSKEWPYCSRCPAVWNGSGAVSARQKPRTNYLELDRKNGSRLIIFVIGGITYSEMRCAYEVSQAHKSCEVIIGSTHILTPRKLLDDIKMLNKSKDKVSFKDE
chain 2: MRDRTHELRQGDNISDDEDEVRVALVVHSGAARLGSPDDEFFQKVQTIRQTMAKLESKVRELEKQQVTILATPLPEESMKQGLQNLREEIKQLGREVRAQLKAIEPQKEEADENYNSVNTRMKKTQHGVLSQQFVELINKCNSMQSEYREKNVERIRRQLKITNAGMVSDEELEQMLDSGQSEVFVSNILKDTQVTRQALNEISARHSEIQQLERSIRELHEIFTFLATEVEMQGEMINRIEKNILSSADYVERGQEHVKIALENQKKARKKK
B2: His-6-Munc18c [not stated] / Sx4 lacking the N-terminal 36 amino acids (N36Δ), GST fusion [not stated] (parent complex)
chain 1: B1 chain 1
chain 2: PDDEFFQKVQTIRQTMAKLESKVRELEKQQVTILATPLPEESMKQGLQNLREEIKQLGREVRAQLKAIEPQKEEADENYNSVNTRMKKTQHGVLSQQFVELINKCNSMQSEYREKNVERIRRQLKITNAGMVSDEELEQMLDSGQSEVFVSNILKDTQVTRQALNEISARHSEIQQLERSIRELHEIFTFLATEVEMQGEMINRIEKNILSSADYVERGQEHVKIALENQKKARKKK

Variants of: B1
Assay: GST pull-down, anti-Munc18c immunoblot quantification; 1 μg GST fusion on glutathione-Sepharose, 1 μg Munc18c, binding buffer, overnight, 4°C; read off a plot

Variant	percent of parent
chain 2 L173A, chain 2 E174A	~73 % of wild-type Sx4

Variants of: B1
Assay: GST pull-down, anti-Munc18c immunoblot quantification; 1 μg GST fusion on glutathione-Sepharose, 1 μg Munc18c, binding buffer, overnight, 4°C; n=3; read off a plot

Variant	percent of parent
chain 2 L173A, chain 2 E174A	~89 % of wild-type Sx4

Variants of: B2
Assay: GST pull-down, anti-Munc18c immunoblot quantification; 1 μg GST fusion on glutathione-Sepharose, 1 μg Munc18c, binding buffer, overnight, 4°C; read off a plot

Variant	screen value
chain 2 L137A, chain 2 E138A	~13 % of wild-type Sx4

Variants of: B2
Assay: GST pull-down, anti-Munc18c immunoblot quantification; 1 μg GST fusion on glutathione-Sepharose, 1 μg Munc18c, binding buffer, overnight, 4°C; n=3; read off a plot

Variant	screen value
chain 2 L137A, chain 2 E138A	~18 % of wild-type Sx4
